# Legend:
# mesothelin (MSLN) [1] = target: mesothelin (MSLN) (UniProt Q13421); assay: virus binding to Panc-1 cells (MSLN strongly-positive), 4 C, E4 qPCR; reference AdMG553 (Ad5/Ad3 fiber)
# mesothelin (MSLN) [2] = target: mesothelin (MSLN) (UniProt Q13421); assay: virus binding to Panc-1 cells (MSLN strongly-positive), 4 C, E4 qPCR; reference AdML-5WT (native Ad5 fiber)
substance,measurement,setting,value
AdML-VTIN (isolated adenovirus with the VTINRSA (SEQ ID NO:12) motif in the AB-loop of the fiber knob) (from UniProt P11818 1-410; P11818 418-581),fold binding ability against AdMG553,mesothelin (MSLN) [1],2 fold
same,fold binding ability against AdML-5WT,mesothelin (MSLN) [2],5 fold
